The Kd is the concentration at which binding is half-saturated.

Positions count from the first letter of the chain named. Numbers in names are those of the source.

The chains are these.
T1: human myostatin (human, UniProt O14793 267-375, biotinylated in selections and radioactive assays (site not stated))
T1 construct: Phage ELISA used both unbiotinylated and biotinylated myostatin; also called biotinylated human myostatin; myostatin-biotin
T1 sequence (looked up): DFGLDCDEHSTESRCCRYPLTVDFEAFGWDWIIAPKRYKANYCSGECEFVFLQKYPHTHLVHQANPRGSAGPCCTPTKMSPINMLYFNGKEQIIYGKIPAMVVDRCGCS

B1: 39973-G3 (designed binder)
chain: MTIPEIIIKVRGTQVVGSDMTVIVEFTNPLKETLRNVWVHLDGPGVTRPMKKMFEQIRESEYVQWEEVVRPWVSGHRKLIASMLTETRPHVYGELDVQIQRRDYKDDDDK
notes: group M3-A
B2: 45927-E1 (designed binder)
chain: MTIPEIIIKVRGTQVVGSDMTVIVEFTNPLKETLRNVWVHLDGPGVTRPMKKMFTGILQWSTVQWEEVVRPWVSGHRKLIASMSPHAWWQHHGNFSVYGELDVQIQRRDYKDDDDK
notes: group M2-Aext
B3: 39633-C1 (designed binder)
chain: MTIPEIIIKVRGTQVVGSDMTVIVEFTNPFKETLRSVWVHLDGPGVTRPMKKMFREIPPKTTVQWEEVVRPWVSGHRKLIASMRTQYLIHLYGELDVQIQRRDYKDDDDK
notes: group M1-A50; V91L; also called M17 (clone ID)
B4: 39633-G1 (designed binder)
chain: B3 chain with T27S, S36N
notes: group M1-A50; V91L
B5: 39633-G5 (designed binder)
chain: B3 chain with R55S, P58R, K60N, T61S
notes: group M1-A50; V91L
B6: 39885-A1 (designed binder)
chain: MTIPEIIIKVRGTQVVGSDMTVIVEFTNPLKETLRNVWVHLDGPGVTRPMKKMFPAIPMNHKVQWEEVVRPWVSGHRKLIASMPQLFHIHVYGELDVQIQRRDYKDDDDK
notes: group M1-A; also called M1-1 (clone ID)
B7: 39973-C10 (designed binder)
chain: B6 chain with A56T, P58S, M59R, N60F, H61K, K62R, F87Q, I89L
notes: group M1-A
B8: 39633-D2 (designed binder)
chain: MTIPEIIIKVRGTQVVGSDMTVIVEFTNLMKETLRNVWVHLDGPGVTRPMKKMFSEIRPNSTVQWEEVVRPWVSGHRKLIASMPSLLHLHVYGELDVQIQRRDYKDDDDK
notes: group M2-A50
B9: 39973-F10 (designed binder)
chain: B6 chain with P55A, A56T, M59P, N60Y, H61L, K62P, F87I, I89L
notes: group M1-A
B10: 39885-G8 (designed binder)
chain: B6 chain with A56T
notes: group M1-A; also called M10-3 (clone ID)
B11: 39908-G4 (designed binder)
chain: B8 chain with T27S, L29P, M30F
notes: group M2-A50; also called M7 (clone ID)
B12: 39885-D11 (designed binder)
chain: B6 chain with P84I, Q85N, L86H, H88Y, I89K
notes: group M2-A
B13: 39885-C1 (designed binder)
chain: B6 chain with P84L, Q85N, L86H, H88Y, I89K
notes: group M2-A
B14: 39633-D3 (V39M) (designed binder)
chain: B8 chain with T27S, L29P, M30F, V39M
notes: group M2-A50; V39M
B15: 39908-G12 (designed binder)
chain: B8 chain with L29P, M30F, N36S
notes: group M2-A50; also called M10 (clone ID)
B16: 39888-B7 (designed binder)
chain: B6 chain with P84N, Q85S, L86S, F87S, H88N, I89Q
notes: group M3-A
B17: 39885-D8 (K9R) (designed binder)
chain: B6 chain with K9R, N60D
notes: group M1-A; K9R; also called M5-2 (clone ID)
B18: 39885-F10 (S82C) (designed binder)
chain: B6 chain with S82C
notes: group M1-A; S82C
B19: 39888-A11 (D42N) (designed binder)
chain: B6 chain with D42N
notes: group M1-A; D42N; also called M14-1 (clone ID); 39888-All(D42N)
B20: 39885-H9 (designed binder)
chain: B6 chain with P84I, Q85N, L86Y, H88Y, I89N
notes: group M2-A
B21: 39885-F8 (designed binder)
chain: B6 chain with I89L
notes: group M1-A; also called M7-L (clone ID)
B22: 39633-H6 (M50V) (designed binder)
chain: B8 chain with L29P, M30F, N36S, M50V, S55R, R58P, N60K, S61T
notes: group M2-A50; M50V
B23: 39885-C11 (designed binder)
chain: B6 chain with P84I, Q85N, L86Y, H88Y, I89K
notes: group M2-A
B24: 39633-E4 (designed binder)
chain: B8 chain with T27S, L29P, M30F, N60D
notes: group M2-A50; also called M019 (clone ID)
B25: 39885-C7 (designed binder)
chain: B6 chain with P55R
notes: group M1-A; also called M3-1 (clone ID)
B26: 39908-H10 (designed binder)
chain: B8 chain with L29P, M30F, N36S, S55R, R58P, N60K, S61T
notes: group M2-A50; also called M4 (clone ID)
B27: 39633-A1 (designed binder)
chain: B3 chain with K60N, R84P, Q86H, Y87H, I89L, L91V
notes: group M4-A50
B28: 39888-G5 (S82I) (designed binder)
chain: B6 chain with S82I
notes: group M1-A; S82I
B29: 39885-G5 (designed binder)
chain: B6 chain with M59Y, N60L, H61S, K62Y, F87H, I89L
notes: group M1-A; also called M8-L (clone ID)
B30: 39885-B5 (F26V) (designed binder)
chain: B6 chain with F26V
notes: group M1-A; F26V; also called M2-1 (clone ID)
B31: 39885-F7 (designed binder)
chain: B6 chain with A56T, Q85H
notes: group M1-A
B32: 45927-A11 (designed binder)
chain: MTIPEIIIKVRGTQVVGSDMTVIVEFTNPLKETLRNVWVHLDGPGVTRPMKKMFQKIPGCSTVQWEEVVRPWVSGHRKLIASMSMLGLPFSLRFIPVYGELDVQIQRRDYKDDDDK
notes: group M1-Aext
B33: 45927-B7 (M50T) (designed binder)
chain: B32 chain with M50T, Q55L
notes: group M1-Aext; M50T
B34: 39973-B12 (designed binder)
chain: MTIPEIIIKVRGTQVVGSDMTVIVEFKHDRYRYLQQVWVHLDGPGVTRPMKKMFKLIIFSYPVQWEEVVRPWVSGHRKLIASMRFMCPSHVYGELDVQIQRRDYKDDDDK
notes: group M3-A
B35: 39973-D2 (designed binder)
chain: MTIPEIIIKVRGTQVVGSDMTVIVEFYFSPGARLATVWVHLDGPGVTRPMKKMFHSIYVPFWVQWEEVVRPWVSGHRKLIASMTTTVQGHVYGELDVQIQRRDYKDDDDK
notes: group M3-A

This assay has as its target T1, human myostatin. Description: radioactive equilibrium binding assay. As to the method: Affinities of selected F13β2 binders to biotinylated myostatin were determined in radioactive equilibrium binding assay (FIGS. 11A and 11B; Table 3). ³⁵S-labeled binder proteins from selection pools and single clones were produced in vitro in a rabbit reticulocyte lysate translation kit (Ambion) and purified on M2-agarose (Sigma). Varying concentrations of biotinylated human myostatin (0-100 nM) or other proteins (protein 1: 100 nM; peptide 1: 250 nM; protein 2: 50 nM) were incubated with a constant concentration of the purified binder protein (1 or 2 nM) at 30° C. for 30 min in buffer B (1×PBS, 0.02% Triton X-100 [pH 7.4]). The receptor-binder complexes were captured by using 25 μl of M280 or Protein A (Dynal) (protein 2) magnetic beads for 10 min at room temperature on a Kingfisher instrument (Thermo Fisher Scientific). The beads were washed five times with 100 μl buffer B, and the amount of ³⁵S-methionine remained on the beads was measured by scintillation counting. Data were analyzed by using the GraphPad Prism software (GraphPad Software, Inc., San Diego, Calif.), fitted with a one-site, nonlinear binding equation. For inhibition assay the binding of ³⁵S-labeled proteins to 20 or 25 nM of biotinylated human myostatin was performed in the presence of varying concentrations of inhibitor (human activin receptor IIB/Fc chimera (R&D Systems, Minneapolis, Minn.) (0-250 nM); protein 1 (100 nM), peptide 1 (250 nM), protein 2 (50 nM); proteins, produced in E. coli, M17, M7, M29, M21, M1-1, WT F13β2 (500 nM)).
For B1, the B max was determined as 1.81% and the Kd came to 22 nM.

Turning to B2, the B max is 4.57% and the Kd was determined as 6.04 nM.

For B3, the B max was determined as 74.8% and the Kd was determined as 39.9 nM.

B4: the B max was 52% and the Kd stood at 38.9 nM.

For B5, the B max came to 64.1% and the Kd came to 33.6 nM.

With B6, the B max is 67.3% and the Kd came to 21.8 nM.

In the case of B7, the B max was 72% and the Kd was found to be 22.8 nM.

Consider B8, for which the B max was determined as 6.74% and the Kd worked out at 11.2 nM.

On to B9, for which the B max worked out at 68% and the dissociation constant Kd is 28.6 nM.

As to B10, the B max was 69.2% and the Kd turned out to be 30.8 nM.

B11: the B max worked out at 49% and the Kd was 28.4 nM.

On to B12, for which the B max amounted to 22.3% and the Kd is 41 nM.

Turning to B13, the B max was determined as 33.3% and the equilibrium dissociation constant (Kd) turned out to be 140 nM.

For B14, the B max was determined as 65.8% and the dissociation constant (Kd) is 26.2 nM.

As for B15, the B max was found to be 34.1% and the Kd is 25.6 nM.

For B16, the B max was found to be 1.19% and the Kd came out at 7.09 nM.

As to B17, the B max amounted to 57.6% and the Kd worked out at 24.7 nM.

For B18, the B max came out at 73.7% and the equilibrium dissociation constant (Kd) is 15.4 nM.

Regarding B19, the B max was 82.4% and the Kd came to 13.6 nM.

Consider B20, for which the B max was 24.1% and the Kd is 14.1 nM.

For B21, the B max was determined as 98.6% and the Kd came out at 28.1 nM.

For B22, the B max was 61.6% and the Kd amounted to 24.8 nM.

On to B23, for which the B max is 18.8% and the Kd worked out at 41.6 nM.

B24: the B max stood at 60% and the Kd amounted to 27.8 nM.

Turning to B25, the B max was 68.4% and the Kd turned out to be 17.4 nM.

With B26, the B max came out at 47.3% and the Kd came out at 29.7 nM.

For B27, the B max was determined as 63.9% and the Kd was 25.5 nM.

In the case of B28, the B max came to 83.1% and the Kd stood at 9.99 nM.

On to B29, for which the B max was determined as 59.4% and the Kd turned out to be 28.5 nM.

For the molecule B30, the B max was found to be 72.2% and the Kd worked out at 25.1 nM.

Regarding B31, the B max amounted to 62.7% and the Kd worked out at 24.1 nM.

With B32, the B max was 41.2% and the Kd was found to be 65 nM.

In the case of B33, the B max was 46.4% and the Kd worked out at 57.6 nM.

On to B34, for which the B max worked out at 7.77% and the Kd is 34.5 nM.

Turning to B35, the B max amounted to 7.66% and the Kd turned out to be 32.9 nM.
